Patent publication US10227388B2, “Peptides and combination of peptides for use in immunotherapy against non-small cell lung cancer and other cancers” (immatics biotechnologies GmbH, priority 2015, dated 2019)

The substances below were run against HLA-A*02:01 (Homo sapiens, UniProt P04439, D140Y/D185E/D98H/E176V/E277Q/G131W/G231S/I119V/I121R/I166T/I218V/L300P/L318F/N151K/N90K/P208A/P217A/Q86G/Q94H/R138H/R169H/T345S) (assay: MHC binding assay (UV-ligand exchange, ELISA, peptide exchange yield)). Settings: binding of HLA-class I restricted peptides to HLA-A*02:01.
Excerpt: Candidate peptides for T cell based therapies according to the present invention were further tested for their MHC binding capacity (affinity). The individual peptide-MHC complexes were produced by UV-ligand exchange, where a UV-sensitive peptide is cleaved upon UV-irradiation, and exchanged with the peptide of interest as analyzed. Only peptide candidates that can effectively bind and stabilize the peptide-receptive MHC molecules prevent dissociation of the MHC complexes. To determine the yield of the exchange reaction, an ELISA was performed based on the detection of the light chain ([…]) of stabilized MHC complexes. The assay was performed as generally described in Rodenko et al. (Rodenko et al., 2006).
96 well MAXISorp plates (NUNC) were coated over night with 2-ug/ml streptavidin in PBS at room temperature, washed 4× and blocked for 1 h at 37° C. in 2% BSA containing blocking buffer. […] Peptide-MHC monomers of the UV-exchange reaction were diluted 100 fold in blocking buffer. Samples were incubated for 1 h at 37° C., washed four times, incubated with 2-ug/ml HRP conjugated anti-β2m for 1 h at 37° C., washed again and detected with TMB solution that is stopped with […]. Absorption was measured at 450 nm. Candidate peptides that show a high exchange yield (preferably higher than 50%, most preferred higher than 75%) are generally preferred for a generation and production of antibodies or fragments thereof, and/or T cell receptors or fragments thereof, as they show sufficient avidity to the MHC molecules and prevent dissociation of the MHC complexes.

Substance	Peptide exchange (MHC class I binding score, peptide exchange yield)
129 (GLLDGGVDILL; listed as Homo sapiens) [compound 129]	″+++″ (≥50% = +++)
130 (FLWNGEDSALL; listed as Homo sapiens) [compound 130]	″+++″ (≥50% = +++)
131 (FVPPVTVFPSL; listed as Homo sapiens) [compound 131]	″++″ (≥20% = ++)
133 (KVLSNIHTV; listed as Homo sapiens) [compound 133]	″++″ (≥20% = ++)
134 (YLQELIFSV; listed as Homo sapiens) [compound 134]	″+++″ (≥50% = +++)
135 (ALSEVDFQL; listed as Homo sapiens) [compound 135]	″+++″ (≥50% = +++)
136 (YLADPSNLFVV; listed as Homo sapiens) [compound 136]	″+++″ (≥50% = +++)
137 (TLVLTLPTV; listed as Homo sapiens) [compound 137]	″++++″ (≥75% = ++++)
145 (FLATSGTLAGI; listed as Homo sapiens) [compound 145]	″++″ (≥20% = ++)
146 (SLATAGDGLIEL; listed as Homo sapiens) [compound 146]	″++″ (≥20% = ++)
148 (ALNPEIVSV; listed as Homo sapiens) [compound 148]	″++″ (≥20% = ++)
149 (NLLELFVQL; listed as Homo sapiens) [compound 149]	″+++″ (≥50% = +++)
151 (KILQQLVTL; listed as Homo sapiens) [compound 151]	″+++″ (≥50% = +++)
154 (ALDDGTPAL; listed as Homo sapiens) [compound 154]	″++″ (≥20% = ++)
160 (FLFDEEIEQI; listed as Homo sapiens) [compound 160]	″+++″ (≥50% = +++)
161 (ALLEGVNTV; listed as Homo sapiens) [compound 161]	″+++″ (≥50% = +++)
163 (ALDEMGDLLQL; listed as Homo sapiens) [compound 163]	″+++″ (≥50% = +++)
166 (YLNHLEPPV; listed as Homo sapiens) [compound 166]	″+++″ (≥50% = +++)
167 (KVLEVTEEFGV; listed as Homo sapiens) [compound 167]	″+++″ (≥50% = +++)
168 (KILDADIQL; listed as Homo sapiens) [compound 168]	″++++″ (≥75% = ++++)
169 (NLPEYLPFV; listed as Homo sapiens) [compound 169]	″+++″ (≥50% = +++)
170 (RLQETLSAA; listed as Homo sapiens) [compound 170]	″+++″ (≥50% = +++)
174 (ALAQYLITA; listed as Homo sapiens) [compound 174]	″+++″ (≥50% = +++)
175 (YLFENISQL; listed as Homo sapiens) [compound 175]	″+++″ (≥50% = +++)
176 (YLMEGSYNKVFL; listed as Homo sapiens) [compound 176]	″++″ (≥20% = ++)
180 (FQIDPHSGLVTV; listed as Homo sapiens) [compound 180]	″++″ (≥20% = ++)

Other lines, results leading:

Peptide exchange (MHC class I binding score, peptide exchange yield)	Substance
″+++″ (≥50% = +++)	132 (LLVEQPPLAGV; listed as Homo sapiens) [compound 132]
″+++″ (≥50% = +++)	138 (YQYPRAILSV; listed as Homo sapiens) [compound 138]
″+++″ (≥50% = +++)	139 (SVMEVNSGIYRV; listed as Homo sapiens) [compound 139]
″++″ (≥20% = ++)	140 (YMDAPKAAL; listed as Homo sapiens) [compound 140]
″+++″ (≥50% = +++)	142 (FLFATPVFI; listed as Homo sapiens) [compound 142]
″+++″ (≥50% = +++)	144 (YIMEPSIFNTL; listed as Homo sapiens) [compound 144]
″+++″ (≥50% = +++)	147 (SLLEAVSFL; listed as Homo sapiens) [compound 147]
″+++″ (≥50% = +++)	152 (ILFEDIFDV; listed as Homo sapiens) [compound 152]
″+″ (≥10% = +)	153 (FLIANVLYL; listed as Homo sapiens) [compound 153]
″+++″ (≥50% = +++)	155 (RVANLHFPSV; listed as Homo sapiens) [compound 155]
″++″ (≥20% = ++)	157 (SLNDEVPEV; listed as Homo sapiens) [compound 157]
″+++″ (≥50% = +++)	158 (KLFDVDEDGYI; listed as Homo sapiens) [compound 158]
″++++″ (≥75% = ++++)	159 (GLVGNPLPSV; listed as Homo sapiens) [compound 159]
″+++″ (≥50% = +++)	162 (YQQAQVPSV; listed as Homo sapiens) [compound 162]
″+++″ (≥50% = +++)	164 (ALLPQPKNLTV; listed as Homo sapiens) [compound 164]
″+++″ (≥50% = +++)	165 (SLLDEIRAV; listed as Homo sapiens) [compound 165]
″+++″ (≥50% = +++)	171 (LLLPLQILL; listed as Homo sapiens) [compound 171]
″++″ (≥20% = ++)	172 (VLYSYTIITV; listed as Homo sapiens) [compound 172]
″+++″ (≥50% = +++)	173 (LLDSASAGLYL; listed as Homo sapiens) [compound 173]
″++++″ (≥75% = ++++)	177 (YLLPEEYTSTL; listed as Homo sapiens) [compound 177]
″++++″ (≥75% = ++++)	178 (ALTEIAFVV; listed as Homo sapiens) [compound 178]
″+++″ (≥50% = +++)	179 (KVLNELYTV; listed as Homo sapiens) [compound 179]
″+++″ (≥50% = +++)	181 (LLWAGTAFQV; listed as Homo sapiens) [compound 181]
″+++″ (≥50% = +++)	182 (MLLEAPGIFL; listed as Homo sapiens) [compound 182]
